From patent publication US12098378B2, “Anti-fungal polypeptides” (priority 2020, dated 2024) come the findings set out here.

Experiment [1] deals with Botrytis cinerea R16. The experiment in a line: In vitro antifungal assay, IncuCyte Zoom monitoring of fungal growth from spore suspension. Type of experiment: cell-based. To be noted: confluence at mid log growth, four-parameter logistic regression (FIG. 1); read-out: IC50, concentration that inhibits 50% of spore germination and/or mycelial growth. As for the experimental part:
Two-fold dilutions of purified VHH 10G11Q were prepared in 96-well microtiter plates. To 20 μl of these dilutions and to 20 μl of water as a control, 80 μl of fungal spore suspension (1 E+05 spores/ml in half strength potato dextrose broth (PDB)) were added, starting with a final VHH 10G11Q concentration of 10 μM. The test plates were incubated for 36 h at 25° C. using the IncuCyte Zoom live cell imaging system. All tests were performed in at least 2 replicates.
Two-fold dilutions of purified VHH 10G11Q and 41D01 were prepared in 96-well microtiter plates. To 20 μl of these dilutions and to 20 μl of water as a control, 80 μl of fungal spore suspension (1 E+05 spores/ml in half strength potato dextrose broth (PDB)) were added, starting with a final VHH 10G11Q concentration of 40 μM. The test plates were incubated for 48 h at 25° C. using the IncuCyte Zoom live cell imaging system. All tests were performed in at least 2 replicates.
Microplate graphs were generated using the time plot feature in the graph/export menu of the IncuCyte® Base Analysis Software. Raw data for confluence of treated samples at mid log growth were exported to GraphPad Prism 8 and plotted as a semi logarithmic function of the standard concentrations. IC50 values are extrapolated after fitting the data with a four-parameter logistic regression curve. Pathogen sensitivity is measured based on the IC50, which refers to the concentration (μM) that inhibits 50% of spore germination and/or mycelial growth.

Experiment [2] has as its system Botrytis cinerea R16. As to the kind of experiment: Prolonged incubation antifungal assay followed over 14 days. Format: cell-based. To be noted: followed over a period of 14 days (FIG. 9). The procedure: Two-fold dilutions of purified VHH 10G11Q were prepared in 96-well microtiter plates. To 20 μl of these dilutions and to 20 μl of water as a control, 80 μl of fungal spore suspension (1 E+05 spores/ml in half strength potato dextrose broth (PDB)) were added, starting with a final VHH 10G11Q concentration of 10 μM. […] All tests were performed in at least 2 replicates.

Experiment [3] concerns liposomes from Fraction 4, the non-polar phospholipids (PLs), of Botrytis cinerea lipid extract. As to the kind of experiment: Interaction with DPH-containing liposomes (fluorescence). Format: binding. To be noted: Fraction 4 liposomes (FIG. 11). As for the experimental part: (§1) In order to investigate the putative interaction partner of 10G11 and its variants, lipids were extracted from Botrytis cinerea hyphae as described in Example 1. For the further fractionation of the total lipid extract thin-layer chromatography was used (TLC; Skipski et al (1965), Biochimica et Biophysica Acta, 106(2): 386-396). The extract was spotted on a silica gel glass plate and run in a chromatography tank filled with 100 mL of the chloroform/methanol mixture (85/15, v/v). Lipid bands separated by TLC were stained with alpha-naphthol enabling visual detection of lipids. Four fractions were identified (FIG. 10): Fraction 1, the fraction of polar lipids; Fraction 2, with a Retention Factor (Rf) similar to the glucosylceramide reference standard (GlcCer from Tamogitake), likely to be ceramides; Fraction 3, with a slightly higher Rf than the reference standard; and Fraction 4, the non-polar phospholipids (PLs). For obtaining sufficient material from the separate Fractions, normal-phase flash chromatography can be used (Gorden, M. H. (2015). Encyclopedia of Analytical Science (Second edition), Elsevier). The TLE was therefore dissolved in CH2Cl2 by addition of a few drops of MeOH and loaded onto a 4 g normal phase flash cartridge with 15 μm particles. The column was run with CH2Cl2/MeOH (85/15, v/v) as the eluent. Finally, Fractions were filtered through a 0.45 μm syringe filter (nylon membrane), and dried. Hereafter, liposomes from the true lipid extract and its individual fractions were prepared via the thin-film hydration method with the addition of 1,6-diphenyl-1,3,5-hexatriene (DPH) (Trucillo et al, 2020. Processes 8(9):1022; Zhang, 2017. Liposomes 1522:1 7-22). […] Any disruption of the lipid membranes would lead to a decrease in fluorescent signal. Hereafter, the interaction of 10G11 with these liposomes was tested.

Experiment [4] has as its system liposomes from Fraction 3 of Botrytis cinerea lipid extract. The description is as above. To be noted: Fraction 3 liposomes (FIG. 11). Format: binding. The procedure:
as §1

The test system of experiment [5] is liposomes from total lipid extract (TLE) of Botrytis cinerea hyphae. Described as above. Type of experiment: binding. The procedure:
as §1

B1: 10G11: VHH polypeptide, SEQ ID NO: 2, begins with a D residue (protein)
VHH: DVQLVESGGGLVQAGGSLRLSCAASRSIFSINAMDWYRQAPGKQREWVAGITRGGTTKYADSVKGRFTISRDNAKKKVYLQMNSLKPEDTAVYYCNVLRGEQPWTRDYWGQGTQVTVSS
B1: the IC50 in experiment [1] worked out at 760 ± 100 nM. Also, in experiment [2], the “effect on preventing spore outgrowth” value was “allowed spore outgrowth to partly reinitiate after 3 days”. Further, the “interaction with lipids in liposomes (DPH fluorescence)” value in experiment [3], in experiment [4] and in experiment [5] (total lipid extract (TLE) liposomes (FIG. 11)) was “interacts” throughout. The “membrane disruption of liposome vesicles” value in experiment [5] (stated generally for the liposomes with which 10G11 interacts (FIG. 11)) is reported as “breakage of the vesicles”.
